Patent US20170204176A1 (MacroGenics, published 2017)

What was measured:
[1] = target: T1, histidine tagged TRAIL (UniProt P50591 95-281, limits assumed); assay: ELISA; biotinylated DR5 mAb 1 on 1 µg/mL TRAIL-His coat
T1 construct: also called TRAIL-His; TRAIL ligand; not shown: histidine tag

[2] = target: human DR5 (human, UniProt O14763 56-210, limits assumed); assay: titration with fluorescence readout (y axis: Log MFI); the text does not describe the assay format
[3] = target: T2, His-tagged cynomolgus monkey DR5 (cynomolgus monkey (Macaca fascicularis)); assay: Biacore (SPR); DR5 mAb 4×CD3 mAb 2 diabody with His-tagged cynomolgus monkey DR5
T2 construct: also called His-tagged DR5
Description: Bi-specific DR5×CD3 diabodies were incubated with His-tagged DR5 and the kinetics of binding was determined via Biacore analysis.

[4] = target: T1, histidine tagged TRAIL; assay: ELISA; biotinylated DR5 mAb 2 on 1 µg/mL TRAIL-His coat

human DR5, sequence (O14763 other isoform, or with tags, fused parts or gaps limits assumed): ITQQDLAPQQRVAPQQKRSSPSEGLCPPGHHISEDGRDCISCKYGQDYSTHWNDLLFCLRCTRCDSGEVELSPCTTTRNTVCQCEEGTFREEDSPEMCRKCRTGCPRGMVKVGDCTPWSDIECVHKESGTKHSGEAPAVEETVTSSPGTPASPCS

B1: DR5 mAb 1 (antibody, V domains shown)
VH: EVKFLESGGGLVQPGGSLKLSCVASGFDFSRYWMSWVRQAPGKGLEWIGEINPDSNTINYTPSLKDKFIISRDNAKNTLYLQMTKVRSEDTALYYCTRRAYYGNPAWFAYWGQGTLVTVSS
VL: DIVLTQSPASLAVSLGQRATISCRASKSVSSSGYSYMHWYQQKPGQPPKVLIFLSSNLDSGVPARFSGSGSGTDFTLNIHPVEDGDAATYYCQHSRDLPPTFGGGTKLEIK
notes: Murine anti-human DR5 monoclonal antibody; also called anti-human DR5 monoclonal antibody DR5 mAb 1
[1]
  binding result: no binding (tested: 2 µg/mL)
[2]
  EC50 (read off the curve): ~1 nM

B2: DR5 mAb 4×CD3 mAb 2 diabody (bispecific antibody)
chain 1: EIVLTQSPGTLSLSPGERATLSCRASQGISRSYLAWYQQKPGQAPSLLIYGASSRATGIPDRFSGSGSGTDFTLTISRLEPEDFAVYYCQQFGSSPWTFGQGTKVEIKGGGSGGGGEVQLVESGGGLVQPGGSLRLSCAASGFTFSTYAMNWVRQAPGKGLEWVGRIRSKYNNYATYYADSVKGRFTISRDDSKNSLYLQMNSLKTEDTAVYYCVRHGNFGNSYVSWFAYWGQGTLVTVSSASTKGEVAACEKEVAALEKEVAALEKEVAALEK
chain 2: QAVVTQEPSLTVSPGGTVTLTCRSSTGAVTTSNYANWVQQKPGQAPRGLIGGTNKRAPWTPARFSGSLLGGKAALTITGAQAEDEADYYCALWYSNLWVFGGGTKLTVLGGGGSGGGGQVQLQESGPGLVKPSQTLSLTCTVSGGSISSGDYFWSWIRQLPGKGLEWIGHIHNSGTTYYNPSLKSRVTISVDTSKKQFSLRLSSVTAADTAVYYCARDRGGDYYYGMDVWGQGTTVTVSSASTKGKVAACKEKVAALKEKVAALKEKVAALKE
notes: Two-chain bi-specific DR5×CD3 diabody with the VL and VH of conatumumab (DR5 mAb 4); also called conatumumab variable domains
[3]
  Kd: 16.4 nM

B3: DR5 mAb 2 (antibody, V domains shown)
VH: KVQLQQSGAELVKPGASVKLSCKASGYTFTEYILHWVKQKSGQGLEWIGWFYPGNNNIKYNEKFKDKATLTADKSSSTVYMELSRLTSEDSAVYFCARHEQGPGYFDYWGQGTTLTVSS
VL: DIVMTQSHKFMSTSVGDRVSITCKASQDVNTAVAWYQQKPGQSPKLLIYWASTRHTGVPDRFTGSGSGTDYTLTIKSVQAEDLTLYYCQQHYITPWTFGGGTKLEIK
notes: Murine anti-human DR5 monoclonal antibody; also called anti-human DR5 monoclonal antibody DR5 mAb 2; DR mAb 2
[4]
  binding result: no binding (tested: 2 µg/mL)
